In patent US20090060908A1 (Bristol-Myers Squibb, published 2009):
Each block holds one binder with its values, some of them ahead of it.

Tests used:
[1] = target: T1, prostate specific membrane antigen (PSMA) on LNCaP cells (human, UniProt Q04609 1-750); test: cell-based or functional assay
[2] = target: T1, prostate specific membrane antigen …; test: cell-based or functional assay; remark: listed apart in the source

T1 sequence (Q04609 whole entry): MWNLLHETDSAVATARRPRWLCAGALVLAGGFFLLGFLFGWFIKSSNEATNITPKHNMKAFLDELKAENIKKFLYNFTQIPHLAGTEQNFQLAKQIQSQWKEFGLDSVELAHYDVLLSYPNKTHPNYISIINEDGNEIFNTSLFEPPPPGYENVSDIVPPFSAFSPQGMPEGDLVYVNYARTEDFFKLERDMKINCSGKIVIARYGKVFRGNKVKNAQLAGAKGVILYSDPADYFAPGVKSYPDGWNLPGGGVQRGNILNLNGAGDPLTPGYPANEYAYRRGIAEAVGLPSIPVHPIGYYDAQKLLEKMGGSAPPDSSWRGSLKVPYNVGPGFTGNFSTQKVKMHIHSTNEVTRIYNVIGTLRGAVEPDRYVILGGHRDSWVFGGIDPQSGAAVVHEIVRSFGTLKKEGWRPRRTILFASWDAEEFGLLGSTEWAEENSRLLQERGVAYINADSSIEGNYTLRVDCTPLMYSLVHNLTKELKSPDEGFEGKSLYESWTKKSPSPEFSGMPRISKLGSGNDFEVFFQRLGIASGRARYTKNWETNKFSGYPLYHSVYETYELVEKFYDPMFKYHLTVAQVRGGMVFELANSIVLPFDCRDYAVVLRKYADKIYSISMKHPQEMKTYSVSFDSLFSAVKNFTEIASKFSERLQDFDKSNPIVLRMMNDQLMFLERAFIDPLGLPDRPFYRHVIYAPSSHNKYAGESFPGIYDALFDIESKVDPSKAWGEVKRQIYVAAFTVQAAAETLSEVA

ADCC % lysis at 1 µg/ml antibody, no anti-CD16 antibody [1]: ~12%
ADCC EC50 (µg/ml) Fucosylated, Expt. #1 (IL-2 stimulated effector cells, LNCaP-C42b targets) [2]: 0.08 µg/mL
ADCC EC50 (µg/ml) Fucosylated, Expt. #2 (IL-2 stimulated effector cells, LNCaP-C42b targets) [2]: 0.026 µg/mL
ADCC EC50 (µg/ml) Fucosylated, Expt. #3 (fresh human peripheral blood effector cells, LNCaP-C42b targets) [2]: 0.036 µg/mL
B1: anti-PSMA fully human monoclonal antibody 2A10 expressed in CHO DG44 cells (fucosylated) (antibody, V domains shown)
VH: EVQLVQSGAEVKKPGESLKISCKGSGYSFTSNWIGWVRQMPGKGLEWMGIIYPGDSDTRYSPSFQGQVTISADKSISTAYLQWSSLKASDTAMYYCARQTGFLWSSDLWGRGTLVTVSS
VL: AIQLTQSPSSLSASVGDRVTITCRASQDISSALAWYQQKPGKAPKLLIYDASSLESGVPSRFSGYGSGTDFTLTINSLQPEDFATYYCQQFNSYPLTFGGGTKVEIK
modifications: N-linked glycans containing fucose

ADCC % lysis at 1 µg/ml antibody, no anti-CD16 antibody [1]: ~37%
ADCC EC50 (µg/ml) Defucosylated, Expt. #1 (IL-2 stimulated effector cells, LNCaP-C42b targets) [2]: 0.007 µg/mL
ADCC EC50 (µg/ml) Defucosylated, Expt. #2 (IL-2 stimulated effector cells, LNCaP-C42b targets) [2]: 0.009 µg/mL
ADCC EC50 (µg/ml) Defucosylated, Expt. #3 (fresh human peripheral blood effector cells, LNCaP-C42b targets) [2]: 0.002 µg/mL
ADCC EC50 Ratio (fucosylated to defucosylated 2A10), Expt. #1 [2]: 11.4 ratio
ADCC EC50 Ratio (fucosylated to defucosylated 2A10), Expt. #2 [2]: 2.9 ratio
ADCC EC50 Ratio (fucosylated to defucosylated 2A10), Expt. #3 [2]: 18 ratio
B2: anti-PSMA fully human monoclonal antibody 2A10 expressed in FUT8-/- Ms704 cells (defucosylated) (antibody, IgG1, V domains shown)
VH: EVQLVQSGAEVKKPGESLKISCKGSGYSFTSNWIGWVRQMPGKGLEWMGIIYPGDSDTRYSPSFQGQVTISADKSISTAYLQWSSLKASDTAMYYCARQTGFLWSSDLWGRGTLVTVSS
VL: AIQLTQSPSSLSASVGDRVTITCRASQDISSALAWYQQKPGKAPKLLIYDASSLESGVPSRFSGYGSGTDFTLTINSLQPEDFATYYCQQFNSYPLTFGGGTKVEIK
modifications: N-linked glycans without fucose residues

ADCC % lysis at 1 µg/ml antibody, no anti-CD16 antibody [1]: ~38%
ADCC EC50, 51Cr release, LNCaP-C42b targets, IL-2 stimulated effector cells [1]: 0.018 µg/mL
ADCC EC50 fold difference against CHO-expressed 7F12 [1]: ~6 fold lower
B3: anti-PSMA human monoclonal antibody 7F12 expressed in eggs of chimeric chickens (lacks fucose residues) (antibody, IgG1, V domains shown)
VH: AVQLVQSGAEVKKPGESLKISCKGSGYSFTSFWIGWARQMPGKGLEWMGIIYPGDSDTRYSPSFQGQVTISADKSISTAYLQWSSLKASDTAMYYCATANSSFWNFDLWGRGTLVTVSS
VL: EIVLTQSPATLSLSPGERATLSCRASQSVSSYLAWYQQKPGQAPRLLIYDASNRATGIPARFSGSGSGTDFTLTISSLEPEDFAVYYCQQRSNWLMYTFGQGTKLEIK
modifications: N-linked Fc glycans without fucosyl residues (high-mannose, complex and hybrid type)
EC50 for antibody internalization (Hum-Zap saporin conjugate, LNCaP cell viability) [1]: 0.49 nM

ADCC % lysis at 1 µg/ml antibody, no anti-CD16 antibody [1]: ~15%
ADCC EC50, 51Cr release, LNCaP-C42b targets, IL-2 stimulated effector cells [1]: 0.11 µg/mL
B4: anti-PSMA human monoclonal antibody 7F12 expressed in CHO cells (fucosylated) (antibody, human IgG1, V domains shown)
VH: AVQLVQSGAEVKKPGESLKISCKGSGYSFTSFWIGWARQMPGKGLEWMGIIYPGDSDTRYSPSFQGQVTISADKSISTAYLQWSSLKASDTAMYYCATANSSFWNFDLWGRGTLVTVSS
VL: EIVLTQSPATLSLSPGERATLSCRASQSVSSYLAWYQQKPGQAPRLLIYDASNRATGIPARFSGSGSGTDFTLTISSLEPEDFAVYYCQQRSNWLMYTFGQGTKLEIK
modifications: N-linked Fc glycans containing fucosyl residues
EC50 for antibody internalization (Hum-Zap saporin conjugate, LNCaP cell viability) [1]: 0.49 nM
